Measurements taken from publication PMC11343739.

How the values were obtained:
[1] = WB of endogenous EP300, 786-O and Caki-1; conditions: glycan lost; control: untreated
[2] = nuclear/cytoplasmic fractionation WB and IF; conditions: glycan lost; control: Flag-EP300-WT
[3] = anti-Flag WB of cell fractions; conditions: glycan lost; control: Flag-EP300-WT
[4] = CHX chase, WB, 786-O cells; conditions: glycan lost; control: Flag-EP300-WT

Substance	expression_or_secretion [1]	localisation_or_trafficking [2]	expression_or_secretion [3]	degradation_or_half_life [4]
EP300: OSMI-1	decreases	–	–	–
EP300: S900A	–	no change	changes	decreases
